According to PMC10174534:

Target: SARS-CoV-2 ΔN135 spike (S) protein, soluble prefusion-stabilised ectodomain trimer (SARS-CoV-2) (UniProt P0DTC2)
Experiment: SEC-MALS

SARS-CoV-2 ΔN135 spike (S) protein, soluble prefusion-stabilised ectodomain trimer (from UniProt P0DTC2 22-1208) (natural protein)
stoichiometry N: 3
